Source: patent publication US20240247072A1 (KEYMED BIOSCIENCES, published 2024)
Changes are numbered by the printed parent chain.

T1: recombinant trimeric protein of human CD70 extracellular region (human CD70 mIgG Fc (knob) / mouse IgG Fc … (human, UniProt P01863 98-330 = IgG part))
T1 construct: The ELISA and Octet texts say only 'recombinant CD70 protein' / 'CM352 antigen'; also called recombinant human CD70 protein; recombinant CD70 protein
T1 chain 1: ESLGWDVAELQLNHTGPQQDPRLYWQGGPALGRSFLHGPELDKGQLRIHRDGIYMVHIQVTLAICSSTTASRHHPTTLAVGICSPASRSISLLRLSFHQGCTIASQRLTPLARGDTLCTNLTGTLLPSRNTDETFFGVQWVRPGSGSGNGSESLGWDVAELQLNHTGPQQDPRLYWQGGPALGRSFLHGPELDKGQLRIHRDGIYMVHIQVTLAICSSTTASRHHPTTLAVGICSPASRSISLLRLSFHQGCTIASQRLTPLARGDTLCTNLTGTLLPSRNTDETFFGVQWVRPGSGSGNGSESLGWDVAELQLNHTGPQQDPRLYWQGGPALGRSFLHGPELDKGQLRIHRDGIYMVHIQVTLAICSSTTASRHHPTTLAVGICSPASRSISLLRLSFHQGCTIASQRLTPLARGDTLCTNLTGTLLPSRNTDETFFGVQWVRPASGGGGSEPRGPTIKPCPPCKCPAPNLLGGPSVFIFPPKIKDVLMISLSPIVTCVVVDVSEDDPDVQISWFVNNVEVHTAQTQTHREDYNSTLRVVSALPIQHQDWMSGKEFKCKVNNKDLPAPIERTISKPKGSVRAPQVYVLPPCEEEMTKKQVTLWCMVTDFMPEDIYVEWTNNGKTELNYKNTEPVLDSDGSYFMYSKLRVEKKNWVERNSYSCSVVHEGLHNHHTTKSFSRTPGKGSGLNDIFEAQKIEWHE
T1 chain 2: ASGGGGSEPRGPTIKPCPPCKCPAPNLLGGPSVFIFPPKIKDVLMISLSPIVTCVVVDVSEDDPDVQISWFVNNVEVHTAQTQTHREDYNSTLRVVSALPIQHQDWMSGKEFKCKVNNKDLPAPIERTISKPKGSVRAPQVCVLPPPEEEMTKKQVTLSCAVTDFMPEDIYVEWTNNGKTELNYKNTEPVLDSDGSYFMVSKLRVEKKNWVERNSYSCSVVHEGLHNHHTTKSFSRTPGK

T2: cynomolgus monkey CD70, full length, on CHO cells (CHO-monkey CD70-D01) (cynomolgus monkey, UniProt A0A2K5WTU9 1-190)
T2 construct: whole, on cells; Stably transfected CHO cells; also called CHO-cynomolgus monkey CD70
T2 sequence: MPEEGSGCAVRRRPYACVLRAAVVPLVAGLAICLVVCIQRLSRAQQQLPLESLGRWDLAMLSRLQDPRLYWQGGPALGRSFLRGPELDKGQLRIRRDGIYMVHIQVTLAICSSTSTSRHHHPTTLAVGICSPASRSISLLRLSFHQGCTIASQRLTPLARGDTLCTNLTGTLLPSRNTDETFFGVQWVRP

T3: human CD70, full length, on CHO cells (CHO-human CD70-B07) (human, UniProt P32970 1-193)
T3 construct: whole, on cells; Stably transfected CHO cells; also called CHO-CD70
T3 sequence (looked up): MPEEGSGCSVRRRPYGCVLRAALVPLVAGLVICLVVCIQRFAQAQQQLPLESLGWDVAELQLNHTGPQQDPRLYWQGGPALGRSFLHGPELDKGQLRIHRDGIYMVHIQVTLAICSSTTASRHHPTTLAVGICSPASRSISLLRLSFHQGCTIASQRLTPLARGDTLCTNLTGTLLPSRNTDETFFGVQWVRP

T4: recombinant cynomolgus monkey CD70 protein (cynomolgus monkey, UniProt A0A2K5WTU9 39-190)
T4 construct: it stands only in column heads ('Monkey', 'Cynomolgus Monkey CD70/CD27') and in result sentences; also called Monkey (ELISA)
T4 sequence: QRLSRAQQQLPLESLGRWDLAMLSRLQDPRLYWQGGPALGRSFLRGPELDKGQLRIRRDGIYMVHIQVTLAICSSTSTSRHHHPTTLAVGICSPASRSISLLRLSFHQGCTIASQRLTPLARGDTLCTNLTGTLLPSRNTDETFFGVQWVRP

B1: 25H7 chimeric antibody (antibody, V domains shown)
VH: EIQLVQSGPELKKPGETVKISCKASGYTFTNYGMNWVKQTPGKGLKWMGWINTDTGEPTYADDFKGRFAFSLETSASTAYLQINNLKNEDMATYFCAREEDYRYVFNYWGQGTTLTVSS
VL: DIQMTQTTSSLSASLGDRVTISCRASQDISNYLNWYQQKPDGTVKLLIYYTSRLHSGVPSRFSGSGSGTDYSLTISNLEQEDIATYFCQQGVTLPLTFGAGTKLELK
B2: humanized antibody Ab001 (antibody, human IgG1, V domains shown)
VH: QIQLVQSGSELKKPGASVKVSCKASGYTFTNYGMNWVRQAPGQGLEWMGWINTYTGEPTYADGFTGRFVFSLDTSASTAYLQISSLKAEDTAVYFCAREEDYRYVFNYWGQGTLVTVSS
VL: DIQMTQSPSSLSASVGDRVTITCQASQDISNYLNWYQQKPGKAPKLLIYDTSRLHAGVPSRFSGSGSGTDYTFTISSLQPEDIATYFCQQGVTLPLTFGQGTKLEIK
notes: also called h39H5 VHv1 + h39H5 VKv1
B3: humanized antibody Ab007 (antibody, human IgG1, V domains shown)
VH: B2 VH with I2V, F95Y
VL: B2 VL
notes: also called Ab007 IgG1; h39H5 VHv3 + h39H5 VKv1
B4: 26G11 chimeric antibody (antibody, V domains shown)
VH: QVQLQQSGPELVKPGASVKISCKTSGYTFADYTMHWVRQSQGKSLEWIGDIYPNDGGPNNNQKFKDKATLTVDKSSSTAYMELRSLTSEDSAVYYCARPFYYGNYAGFAFWGQGTLVTVSA
VL: EMVLTQSPAIMSASPGEKVTMTCSASSSVSYMYWYQQKPGSSPRLLIYDTSNLASGVPVRFSGSGSGTSYSLTISRMEAEDAATYYCQQWSSYPLTFGAGTRLEIK

Legend:
[1] = target: T1, recombinant trimeric protein of human …; assay: competition ELISA, chimeric IgG titrated, CD27 coated, biotin-CD70, human pair
Method: (§1) The recombinant CD27 protein was coated at 1 μg/mL in a 96-well microtiter plate and incubated overnight at 4° C. The next day, the plate was washed 3 times with PBS, added with 200 μL of 2% defatted dry milk/PBS, blocked at room temperature for 2 hours, and washed once with PBS. The purified chimeric antibody was divided to 12 concentration gradients starting at 100 nM and diluted in a 1:3 gradient. […] of the antibody was added per well and incubated at room temperature for 30 minutes. […] The plate was washed 3 times with PBST and PBS and dried by spinning. A secondary antibody Streptavidin-coupled horseradish peroxidase SA-HRP (BD bioscience, cat. No: 6222697) was diluted with 0.5% BSA in a ratio of 1:8000. 100 μL of the diluent was added into each well and incubated at room temperature for 30 minutes. The plate was washed 3 times with PBST and PBS and dried by spinning. 100 μl of color development solution (TMB solution, Sigma, Cat. No: T2885) was added into each well and protected from light at 37° C. for reaction. After the substrate developed moderately, 50 μl of H₂SO₄ was added into each well to terminate the reaction. The OD450 nm was determined by using an enzyme-linked detector within 30 minutes, and the data was collected. The results were calculated by using Graph Pad Prism 5 software.

[2] = target: T2, cynomolgus monkey CD70, full length, on …; assay: flow cytometry, chimeric IgG on CHO-cynomolgus monkey CD70 cells
Method: (§2) Different cells in logarithmic growth phase were taken, blocked with 3% BSA for 30 minutes, and plated to a 96-well U-plate at 5×10⁴ cells/100 μL. The centrifuge was performed at 1100 rpm for 3 minutes. The supernatant was discarded and the cells were gently tapped to be loosening. 50 μL of gradient diluted antibody was added (antibody concentration: from 30 μg/mL, 3-fold dilution for 5 gradients) per well, and incubated at 4° C. for 1 hour. After incubation, 180 μL of 0.5% BSA was added to each well for washing 3 times. 30 μL/well of secondary antibody AlexaFluro647 anti-human IgG (Jackson Immuno Research, Cat. No: 109-606-170) was added and incubated at 4° C. for 45 minutes. At the end of the incubation, each well was washed 3 times with 180 μL of 0.5% BSA and finally resuspended in 50 μL of PBS for iQue (Intellicyt, USA) assay.

[3] = target: T3, human CD70, full length, on CHO cells …; assay: flow cytometry, chimeric IgG on CHO-human CD70 cells
Method: as §2

[4] = target: T4, recombinant cynomolgus monkey CD70 …; assay: competition ELISA, chimeric IgG titrated, CD27 coated, biotin-CD70, cynomolgus pair
Method: as §1

[5] = target: T1, recombinant trimeric protein of human …; assay: competition ELISA, humanized IgG1 titrated, CD27 coated, biotin-CD70, human pair
Method: The recombinant human CD27 protein was coated at 1 μg/mL in a 96-well microtiter plate and incubated overnight at 4° C. The next day, the plate was washed 3 times with PBS, added with 200 μL of 2% defatted dry milk/PBS, blocked at room temperature for 2 hours, and washed once with PBS. […] 30 μl of the antibody was added per well and incubated at room temperature for 30 minutes. […] The plate was washed 3 times with PBST and PBS and dried by spinning. A secondary antibody solution Streptavidin-coupled horseradish peroxidase SA-HRP (BD bioscience, Cat. No: 6222697) was diluted with 0.5% BSA in a ratio of 1:8000. 100 μL of the diluent was added into each well and incubated at room temperature for 30 minutes. The plate was washed 3 times with PBST and PBS and dried by spinning. […] of color development solution (TMB solution, Sigma, Cat. No: T2885) was added into each well and protected from light at 37° C. for reaction. After the substrate developed moderately, […] of H₂SO₄ was added into each well to terminate the reaction. The OD450 nm was determined using an enzyme-linked detector within 30 minutes, and the data was collected. The results were calculated by using Graph Pad Prism 5 software. See FIG. 10-1, 10-2, and Table 12 for the results.

[6] = target: T1, recombinant trimeric protein of human …; assay: cell-based or functional assay
[7] = target: T3, human CD70, full length, on CHO cells …; assay: flow cytometry, humanized IgG1 on CHO-human CD70 cells
Method: (§3) The supernatant was discarded and the cells were gently tapped to be loosening. 50 μL of gradient diluted antibodies were added (antibody concentration: from 30 μg/mL, 3-fold dilution for 8 gradients) per well, and incubated at 4° C. for 1 hour. After incubation, 200 μL of 0.5% BSA was added to each well for washing 3 times. 50 μL/well of secondary antibody Alexa Fluro647 anti-human IgG (Jackson ImmunoResearch, Cat. No: 109-606-170) was added and incubated at 4° C. for 45 minutes. At the end of the incubation, each well was washed 3 times with 180 μL of 0.5% BSA and finally resuspended in 50 μL of PBS for iQue (Intellicyt) assay.

[8] = target: T4, recombinant cynomolgus monkey CD70 …; assay: competition ELISA, humanized IgG1 titrated, CD27 coated, biotin-CD70, cynomolgus pair
[9] = target: T2, cynomolgus monkey CD70, full length, on …; assay: flow cytometry, humanized IgG1 on CHO-cynomolgus monkey CD70 cells
Method: as §3

IC50 [1] | EC50 [2] | EC50 [3] | IC50 [4] | IC50 [5] | Inhibition of IL-8 secretion IC50(nM), HT1080-human CD27 cells stimulated with recombinant human CD70 [6] | EC50 [7] | IC50 [8] | EC50 [9] | Binder
0.16 nM | 17.4 nM | 16.1 nM | 0.15 nM | – | – | – | – | – | B1
– | – | – | – | 0.04 nM | 10.7 nM | 2 nM | 0.05 nM | 5.78 nM | B2
– | – | – | – | 0.04 nM | 9.92 nM | 2.57 nM | 0.05 nM | 3.14 nM | B3
0.17 nM | 21 nM | 22.5 nM | 0.21 nM | – | – | – | – | – | B4
